# Patent US20250152742A1, “COMPOSITIONS AND METHODS FOR NEUROLOGICAL DISEASES” (Trames Bio, Inc., priority 2022, published 2025)
# System: engineered chimeric receptor SEQ ID NO: 33 and its mutants (human α7-nAChR ligand binding domain / human GlyRα1 ion pore domain) in Lenti-X 293T cells
# Test: YFP fluorescence quenching anion reporter plate reader assay (percent quench, EC50)
# Format: cell-based
# Conditions: for YFP fluorescence quenching using CNL001 (percent quench): receptor named in row; for YFP fluorescence quenching using Varenicline, 3 nM var: ligand Varenicline 3 nM; for YFP fluorescence quenching using Varenicline, 30 nM var: ligand Varenicline 30 nM; for YFP fluorescence quenching using Varenicline, 300 nM var: ligand Varenicline 300 nM; for YFP fluorescence quenching using Varenicline, 500 nM var: ligand Varenicline 500 nM; for YFP fluorescence quenching using Varenicline, 1 uM var: ligand Varenicline 1 uM
# Summary of the method: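 Percent quench compares mean YFP signal over the final 10 s with the 15 s baseline before ligand, added in iodide-containing extracellular solution (pH 7.2). Cells were LX293T carrying a YFP anion reporter, transiently transfected with the channel construct; plates were preincubated 30 min at 37 °C.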
molecule,measurement,setting,value
"CODA71: parental chimeric LGIC: human α7-nAChR ligand binding domain with GlyRα1 Cys-loop fused to human GlyRα1 ion pore domain (protein, synthetic sequence of chimeric LGIC) MRCSPGGVWLALAASLLHVSLQGEFQRKLYKELVKNYNPLERPVANDSQPLTVYFSLSLLQIMDVDEKNQVLTTNIWLQMSWTDHYLQWNVSEYPGVKTVRFPDGQIWKPDILLYNSADERFDATFHTNVLVNSSGHCQYLPPGIFKSSCPMDLKNFPMDVQTCKLKFGSWSYGGWSLDLQMQEADISGYIPNGEWDLVGIPGKRSERFYECCKEPYPDVTFTVTMRRRMGYYLIQMYIPSLLIVILSWISFWINMDAAPARVGLGITTVLTMTTQSSGSRASLPKVSYVKAIDIWMAVCLLFVFSALLEYAAVNFVSRQHKELLRFRRKRRHHKSPMLNLFQEDEAGEGRFNFSAYGMGPACLQAKDGISVKGANNSNTTNPPPAPSKSPEEMRKLFIQRAKKIDKISRIGFPMAFLIFNMFYWIIYKIVRREDVHNQ",YFP fluorescence quenching using CNL001 (percent quench),"1 nM CNL001, first column so headed",3.727%
same,YFP fluorescence quenching using CNL001 (percent quench),"1 nM CNL001, second column so headed",20.231%
same,YFP fluorescence quenching using TC-5619/Bradanicline (percent quench),1 nM brd (TC-5619/Bradanicline),9.41%
same,YFP fluorescence quenching using TC-5619/Bradanicline (percent quench),3 nM brd (TC-5619/Bradanicline),44.38%
same,YFP fluorescence quenching using CNL001 (percent quench),"10 nM CNL001, first column so headed",81.096%
same,YFP fluorescence quenching using CNL001 (percent quench),"10 nM CNL001, second column so headed",82.368%
same,YFP fluorescence quenching using TC-5619/Bradanicline (percent quench),10 nM brd (TC-5619/Bradanicline),76.61%
same,YFP fluorescence quenching using TC-6683 (percent quench),30 nM TC-6683,−14.43%
same,YFP fluorescence quenching using TC-5619/Bradanicline (percent quench),30 nM brd (TC-5619/Bradanicline),70.23%
same,YFP fluorescence quenching using CNL001 (percent quench),"50 nM CNL001, first column so headed",83.62%
same,YFP fluorescence quenching using CNL001 (percent quench),"50 nM CNL001, second column so headed",84.482%
same,YFP fluorescence quenching using ABT-126 (percent quench),50 nM abt (ABT-126),−1.98%
same,YFP fluorescence quenching using CNL001 (percent quench),"100 nM CNL001, first column so headed",84.297%
same,YFP fluorescence quenching using CNL001 (percent quench),"100 nM CNL001, second column so headed",85.368%
same,YFP fluorescence quenching (percent quench),100 nM CNL002,49.61%
same,YFP fluorescence quenching using ABT-126 (percent quench),100 nM abt (ABT-126),24.27%
same,YFP fluorescence quenching using AZD-0328 (percent quench),100 nM azd0328,73.59%
same,YFP fluorescence quenching using TC-5619/Bradanicline (percent quench),100 nM brd (TC-5619/Bradanicline),78.62%
same,YFP fluorescence quenching using TC-6683 (percent quench),300 nM TC-6683,−13.08%
same,YFP fluorescence quenching using ABT-126 (percent quench),300 nM abt (ABT-126),56.8%
same,YFP fluorescence quenching using AZD-0328 (percent quench),300 nM azd0328,78.09%
same,YFP fluorescence quenching using TC-5619/Bradanicline (percent quench),300 nM brd (TC-5619/Bradanicline),75.51%
same,YFP fluorescence quenching using ABT-126 (percent quench),500 nM abt (ABT-126),76.28%
same,YFP fluorescence quenching using CNL001 (percent quench),"1 uM CNL001, first column so headed",85.647%
same,YFP fluorescence quenching using CNL001 (percent quench),"1 uM CNL001, second column so headed",86.358%
same,YFP fluorescence quenching (percent quench),1 uM CNL002,74.15%
same,YFP fluorescence quenching using ABT-126 (percent quench),1 uM abt (ABT-126),73.16%
same,YFP fluorescence quenching using TC-6683 (percent quench),3 uM TC-6683,−13.71%
same,YFP fluorescence quenching using ABT-126 (percent quench),3 uM abt (ABT-126),70.98%
same,YFP fluorescence quenching using ABT-126 (percent quench),10 uM abt (ABT-126),72.62%
same,YFP fluorescence quenching (percent quench),10 uM ach (acetylcholine),15.61%
same,YFP fluorescence quenching (percent quench),30 uM CNL002,75.21%
same,YFP fluorescence quenching using TC-6683 (percent quench),30 uM TC-6683,−14.02%
same,YFP fluorescence quenching using ABT-126 (percent quench),30 uM abt (ABT-126),77.49%
same,YFP fluorescence quenching (percent quench),30 uM ach (acetylcholine),63.31%
same,YFP fluorescence quenching using AZD-0328 (percent quench),30 uM azd0328,79.05%
same,YFP fluorescence quenching using ABT-126 (percent quench),50 uM abt (ABT-126),77.96%
same,YFP fluorescence quenching (percent quench),50 uM ach (acetylcholine),73.16%
same,YFP fluorescence quenching using TC-6683 (percent quench),100 uM TC-6683,−8.77%
same,YFP fluorescence quenching using ABT-126 (percent quench),100 uM abt (ABT-126),77.81%
same,YFP fluorescence quenching (percent quench),100 uM ach (acetylcholine),74.94%
same,YFP fluorescence quenching (percent quench),300 uM ach (acetylcholine),65.94%
same,YFP fluorescence quenching (percent quench),500 uM ach (acetylcholine),62.78%
same,YFP fluorescence quenching (percent quench),1 mM ach (acetylcholine),74.24%
same,YFP fluorescence quenching (percent quench),3 mM ach (acetylcholine),76.27%
same,YFP fluorescence quenching (percent quench),5 mM ach (acetylcholine),77.15%
same,YFP fluorescence quenching (percent quench),10 mM ach (acetylcholine),77.96%
same,"YFP fluorescence quenching using Facinicline, 30 nM fac",ligand Facinicline 30 nM,53.42
same,"YFP fluorescence quenching using Facinicline, 100 nM fac",ligand Facinicline 100 nM,83.6
same,"YFP fluorescence quenching using Facinicline, 300 nM fac",ligand Facinicline 300 nM,77.44
same,"YFP fluorescence quenching using Facinicline, 30 uM fac",ligand Facinicline 30 uM,79.62
same,"YFP fluorescence quenching using TC-6987, 1 uM tc6987",ligand TC-6987 1 uM,31.56
same,"YFP fluorescence quenching using TC-6987, 3 uM tc6987",ligand TC-6987 3 uM,31.82
same,"YFP fluorescence quenching using TC-6987, 5 uM tc6987",ligand TC-6987 5 uM,30.75
same,"YFP fluorescence quenching using TC-6987, 10 uM tc6987",ligand TC-6987 10 uM,56.68
same,"YFP fluorescence quenching using TC-6987, 30 uM tc6987",ligand TC-6987 30 uM,51.46
same,"YFP fluorescence quenching using TC-6987, 50 uM tc6987",ligand TC-6987 50 uM,61.26
same,"YFP fluorescence quenching using TC-6987, 100 uM tc6987",ligand TC-6987 100 uM,43.21
same,"YFP fluorescence quenching using TC-6987, 300 uM tc6987",ligand TC-6987 300 uM,7.79
same,"YFP fluorescence quenching using TC-6987, 500 uM tc6987",ligand TC-6987 500 uM,51.58
same,"YFP fluorescence quenching using Varenicline, 3 nM var",first column,−2.36
same,"YFP fluorescence quenching using Varenicline, 3 nM var",second column,−3.522
same,"YFP fluorescence quenching using Varenicline, 30 nM var",first column,−4.255
same,"YFP fluorescence quenching using Varenicline, 30 nM var",second column,−3.636
same,"YFP fluorescence quenching using Varenicline, 300 nM var",first column,46.195
same,"YFP fluorescence quenching using Varenicline, 300 nM var",second column,45.522
same,"YFP fluorescence quenching using Varenicline, 500 nM var",first column,69.253
same,"YFP fluorescence quenching using Varenicline, 500 nM var",second column,71.705
same,"YFP fluorescence quenching using Varenicline, 1 uM var",first column,79.254
same,"YFP fluorescence quenching using Varenicline, 1 uM var",second column,79.244
